Reference: US20200017592A1 (Regeneron, published 2020)
Substitutions are numbered along the chain they refer to. Each block holds one binder with its values, some of them ahead of it.

Key:
[1] = molecular target: T1, human IL-36R extracellular domain expressed with a C-terminal mouse IgG2a Fc tag (hIL-36R-mFc) (human; mouse, UniProt Q9HB29 20-337); assay: SPR Biacore 4000, mAb captured on anti-hFc, 25C
T1 construct: not shown: mouse IgG2a Fc, E98-K330
T1 sequence (looked up): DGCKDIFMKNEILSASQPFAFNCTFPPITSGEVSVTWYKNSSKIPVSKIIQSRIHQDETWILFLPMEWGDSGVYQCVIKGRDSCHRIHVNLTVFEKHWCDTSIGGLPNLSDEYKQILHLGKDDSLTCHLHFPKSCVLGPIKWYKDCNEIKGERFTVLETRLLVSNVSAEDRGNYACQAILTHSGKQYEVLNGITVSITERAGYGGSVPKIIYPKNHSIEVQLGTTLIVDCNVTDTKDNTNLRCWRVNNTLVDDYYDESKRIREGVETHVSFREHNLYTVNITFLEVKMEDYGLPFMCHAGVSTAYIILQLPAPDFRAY
Experimental: (§1) Equilibrium dissociation constants (KD values) for IL-36R binding to purified anti-IL-36R antibodies were determined using a real-time surface plasmon resonance biosensor using a Biacore 4000 instrument. The Biacore sensor surface was first derivatized by amine coupling with a monoclonal mouse anti-human Fc antibody (GE, # BR-1008-39) to capture anti-IL-36R monoclonal antibodies. All binding studies were performed in 0.01 M Hepes pH 7.4, 0.15 M NaCl, 3 mM EDTA, and 0.05% v/v Surfactant Tween-20 (HBS-ET running buffer) at 25° C. and 37° C. Different concentrations of IL-36R reagents, human IL-36R extracellular domain expressed with a C-terminal myc-myc-hexahistidine tag (hIL-36R-MMH), Macaca fascicularis IL-36R extracellular domain expressed with a C-terminal myc-myc-hexahistidine tag (mfIL-36R-MMH: mROR1 signal sequence (M1-A29). Macaca fascicularis IL36R_ecto domain (D20-A336).mycmycHis6), human IL-36R extracellular domain expressed with a C-terminal mouse IgG2a Fc tag (hIL-36R-mFc: mROR1 signal sequence (M1-A29)-human IL36R (D20-Y337)-mouse IgG2aFc (E98-K330)) or an in-line fusion protein of human IL-36R extracellular domain and IL1RAcP extracellular domain expressed with mouse IgG2a Fc tag (hIL-36R-Trap-mFc: mROR1 signal sequence (M1-A29)-human IL36R ecto domain (D20-Y337)-human IL1RacP ecto domain(S21-E359)-mouse IgG2aFc) in HBS-ET running buffer (ranging from 100 nM to 3.7 nM, 3-fold dilutions) were injected over the anti-IL-36R antibody captured surface for 4 minutes at a flow rate of 30 μL/minute and their dissociation in HBS-ET running buffer was monitored for 10 minutes. Kinetic association rate constant (kₐ) and dissociation rate constant (kd) were determined by fitting the real-time sensorgrams to a 1:1 binding model using Scrubber 2.0c curve fitting software. Binding dissociation equilibrium constants (KD) and dissociative half-lives (t_{1/2}) were calculated from the kinetic rate constants as: […]

[2] = molecular target: T2, in-line fusion protein of human IL-36R extracellular domain and IL1RAcP extracellular domain expressed with … (human; mouse, UniProt Q9HB29 20-337; Q9NPH3 21-359, limits assumed); assay: SPR Biacore 4000, mAb captured on anti-hFc, 25C
T2 construct: not shown: mouse IgG2a Fc
T2 sequence (looked up): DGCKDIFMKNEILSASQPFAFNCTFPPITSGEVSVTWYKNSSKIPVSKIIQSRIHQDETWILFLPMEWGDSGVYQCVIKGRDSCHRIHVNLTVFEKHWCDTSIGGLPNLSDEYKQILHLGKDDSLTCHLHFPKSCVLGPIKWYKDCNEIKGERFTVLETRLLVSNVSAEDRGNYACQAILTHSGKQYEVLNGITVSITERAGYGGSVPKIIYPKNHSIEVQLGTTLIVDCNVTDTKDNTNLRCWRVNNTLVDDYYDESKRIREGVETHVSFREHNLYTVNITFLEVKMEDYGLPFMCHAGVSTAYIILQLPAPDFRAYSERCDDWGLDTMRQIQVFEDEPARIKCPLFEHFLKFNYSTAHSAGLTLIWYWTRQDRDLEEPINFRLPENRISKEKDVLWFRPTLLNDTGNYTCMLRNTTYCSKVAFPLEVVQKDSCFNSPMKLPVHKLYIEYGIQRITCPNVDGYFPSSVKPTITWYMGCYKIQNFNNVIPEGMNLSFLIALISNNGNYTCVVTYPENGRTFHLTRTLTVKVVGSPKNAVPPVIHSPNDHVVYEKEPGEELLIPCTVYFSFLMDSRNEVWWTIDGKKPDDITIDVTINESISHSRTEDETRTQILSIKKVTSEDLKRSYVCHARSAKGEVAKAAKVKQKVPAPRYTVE
Experimental: as §1

[3] = molecular target: T3, human IL-36R extracellular domain expressed with a C-terminal myc-myc-hexahistidine tag (hIL-36R-MMH) (human, UniProt Q9HB29 20-337); assay: SPR Biacore T200, mAb captured on anti-hFc, 37C, PBS-T pH 7.4 running buffer
T3 construct: also called Human IL-36R-MMH; REGN2105
Experimental: (§2) Additional binding experiments were performed to determine the effect of pH on the rate of dissociation of IL-36R bound to purified anti-IL-36R antibodies, which was determined using a real-time surface plasmon resonance biosensor using a Biacore T200 instrument. The Biacore sensor surface was first derivatized by amine coupling with a monoclonal mouse anti-human Fc antibody (GE, # BR-1008-39) to capture anti-IL-36R antibodies. […] Different concentrations of hIL-36R-MMH and mfIL-36R-MMH prepared in PBS-T, pH7.4 buffer (ranging from 100 nM to 11.11 nM, 3-fold dilutions) were injected over the anti-IL-36R antibody captured surface for 4 minutes at a flow rate of 50 μL/minute and their dissociation in two running buffers, PBS-T, pH7.4 and PBS-T, pH 6.0, was monitored for 10 minutes. All of these binding kinetics experiments were performed at 25° C. and 37° C. Kinetic dissociation constant (kd) were determined by fitting the real-time sensorgrams to a 1:1 binding model using Scrubber 2.0c curve fitting software. Binding dissociative half-lives (t_{1/2}) were calculated from kd as: […]

[4] = molecular target: T1, human IL-36R extracellular domain …; assay: SPR Biacore 4000, mAb captured on anti-hFc, 37C
Experimental: as §1

[5] = molecular target: T2, in-line fusion protein of human IL-36R …; assay: SPR Biacore 4000, mAb captured on anti-hFc, 37C
Experimental: as §1

[6] = molecular target: T3, human IL-36R extracellular domain …; assay: SPR Biacore T200, mAb captured on anti-hFc, 25C, PBS-T pH 7.4 running buffer
Experimental: as §2

[7] = molecular target: T3, human IL-36R extracellular domain …; assay: SPR Biacore T200, mAb captured on anti-hFc, 25C, PBS-T pH 6.0 running buffer
Experimental: as §2

[8] = molecular target: T3, human IL-36R extracellular domain …; assay: SPR Biacore T200, mAb captured on anti-hFc, 37C, PBS-T pH 6.0 running buffer
Experimental: as §2

T3 sequence (Q9HB29 other isoform, or with tags, fused parts or gaps limits assumed): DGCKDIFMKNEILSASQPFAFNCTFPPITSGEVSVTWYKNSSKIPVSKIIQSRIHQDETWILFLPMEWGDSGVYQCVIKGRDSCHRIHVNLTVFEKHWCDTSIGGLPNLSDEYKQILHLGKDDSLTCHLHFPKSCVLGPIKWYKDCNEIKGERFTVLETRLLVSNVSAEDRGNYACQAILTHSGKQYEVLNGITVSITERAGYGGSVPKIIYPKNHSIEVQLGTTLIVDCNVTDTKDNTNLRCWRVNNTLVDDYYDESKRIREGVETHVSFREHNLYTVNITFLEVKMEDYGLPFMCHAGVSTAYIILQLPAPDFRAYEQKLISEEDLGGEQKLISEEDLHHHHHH

B1: H4H14699P2 (antibody, human IgG4 S228P, kappa, V domains shown)
VH: EVQLVESGGGLVQPGRSLRLSCAASGFTFDDYAIHWVRQAPGKGLEWVSVISWNSDIIGYADSVKGRFTVSRDNAKNSLYLQMNSLRTEDTALYYCAKGYNWNFFDYWGQGTLVTVSS
VL: EIVLTQSPATLSLSPGERATLSCRASQSVSSYLAWYQQKPGQAPRLLIYNAANRATDIPARFSGSGSGTDFTLTISSLEPEDFAVYYCQQRSNWPLTFGGGTKVEIKR
notes: Fully human anti-IL-36R antibody
100 nM hIL-36R-mFc Bound (RU) [1]: 150 RU
Kd [1]: 0.359 nM
koff [1]: 0.000203 s⁻¹
kon [1]: 564000 M⁻¹ s⁻¹
t1/2 [1]: 57 min
100 nM hIL-36R-Trap-mFc Bound (RU) [2]: 188 RU
Kd [2]: 0.458 nM
koff [2]: 0.000228 s⁻¹
kon [2]: 498000 M⁻¹ s⁻¹
t1/2 [2]: 51 min
100 nM hIL-36R-MMH Bound (RU) [3]: 96 RU
koff [3]: 0.00415 s⁻¹
t1/2 [3]: 3 min
100 nM hIL-36R-mFc Bound (RU) [4]: 186 RU
Kd [4]: 0.767 nM
koff [4]: 0.000456 s⁻¹
kon [4]: 594000 M⁻¹ s⁻¹
t1/2 [4]: 25 min
100 nM hIL-36R-Trap-mFc Bound (RU) [5]: 229 RU
Kd [5]: 1.06 nM
koff [5]: 0.000513 s⁻¹
kon [5]: 484000 M⁻¹ s⁻¹
t1/2 [5]: 23 min
100 nM Human IL-36R-MMH Bound (RU) [6]: 84 RU
koff [6]: 0.00193 s⁻¹
t1/2 [6]: 6 min
100 nM Human IL-36R-MMH Bound (RU) [7]: 79 RU
koff [7]: 0.00293 s⁻¹
t1/2 [7]: 4 min
100 nM hIL-36R-MMH Bound (RU) [8]: 83 RU
koff [8]: 0.00581 s⁻¹
t1/2 [8]: 2 min

B2: H4H14708P2 (antibody, human IgG4 S228P, kappa, V domains shown)
VH: B1 VH with G10D, I34M, I57V, G59A, A61S, V70I, A97T, Y100H, N101K, N103S
VL: B1 VL with V29I, Y49F, A51V
notes: as for B1
100 nM hIL-36R-mFc Bound (RU) [1]: 146 RU
Kd [1]: 0.317 nM
koff [1]: 0.000128 s⁻¹
kon [1]: 403000 M⁻¹ s⁻¹
t1/2 [1]: 90 min
100 nM hIL-36R-Trap-mFc Bound (RU) [2]: 172 RU
Kd [2]: 0.357 nM
koff [2]: 0.000129 s⁻¹
kon [2]: 361000 M⁻¹ s⁻¹
t1/2 [2]: 90 min
100 nM hIL-36R-MMH Bound (RU) [3]: 105 RU
koff [3]: 0.00177 s⁻¹
t1/2 [3]: 7 min
100 nM hIL-36R-mFc Bound (RU) [4]: 203 RU
Kd [4]: 0.435 nM
koff [4]: 0.0002 s⁻¹
kon [4]: 460000 M⁻¹ s⁻¹
t1/2 [4]: 58 min
100 nM hIL-36R-Trap-mFc Bound (RU) [5]: 239 RU
Kd [5]: 0.656 nM
koff [5]: 0.000253 s⁻¹
kon [5]: 385000 M⁻¹ s⁻¹
t1/2 [5]: 46 min
100 nM Human IL-36R-MMH Bound (RU) [6]: 87 RU
koff [6]: 0.000796 s⁻¹
t1/2 [6]: 15 min
100 nM Human IL-36R-MMH Bound (RU) [7]: 79 RU
koff [7]: 0.00163 s⁻¹
t1/2 [7]: 7 min
100 nM hIL-36R-MMH Bound (RU) [8]: 95 RU
koff [8]: 0.00337 s⁻¹
t1/2 [8]: 3 min

Binders with a lower Kd [1], results first:

100 nM hIL-36R-mFc Bound (RU) [1]: 128 RU
Kd [1]: 0.233 nM
koff [1]: 0.00012 s⁻¹
kon [1]: 517000 M⁻¹ s⁻¹
t1/2 [1]: 96 min
100 nM hIL-36R-Trap-mFc Bound (RU) [2]: 157 RU
Kd [2]: 0.283 nM
koff [2]: 0.000125 s⁻¹
kon [2]: 442000 M⁻¹ s⁻¹
t1/2 [2]: 92 min
100 nM hIL-36R-MMH Bound (RU) [3]: 153 RU
koff [3]: 0.00169 s⁻¹
t1/2 [3]: 7 min
100 nM hIL-36R-mFc Bound (RU) [4]: 174 RU
Kd [4]: 0.39 nM
koff [4]: 0.000209 s⁻¹
kon [4]: 535000 M⁻¹ s⁻¹
t1/2 [4]: 55 min
100 nM hIL-36R-Trap-mFc Bound (RU) [5]: 216 RU
Kd [5]: 0.555 nM
koff [5]: 0.000253 s⁻¹
kon [5]: 455000 M⁻¹ s⁻¹
t1/2 [5]: 46 min
100 nM Human IL-36R-MMH Bound (RU) [6]: 128 RU
koff [6]: 0.000795 s⁻¹
t1/2 [6]: 15 min
100 nM Human IL-36R-MMH Bound (RU) [7]: 120 RU
koff [7]: 0.00172 s⁻¹
t1/2 [7]: 7 min
100 nM hIL-36R-MMH Bound (RU) [8]: 144 RU
koff [8]: 0.0035 s⁻¹
t1/2 [8]: 3 min
B3: H4H14700P2 (antibody, human IgG4 S228P, kappa, V domains shown)
VH: B1 VH with I34M, A40T, I57V, G59A, A61S, V70I, R87G, Y100H
VL: B1 VL with A51V, S77G, Y87F
notes: as for B1

100 nM hIL-36R-mFc Bound (RU) [1]: 163 RU
Kd [1]: 0.23 nM
koff [1]: 0.000132 s⁻¹
kon [1]: 575000 M⁻¹ s⁻¹
t1/2 [1]: 87 min
100 nM hIL-36R-Trap-mFc Bound (RU) [2]: 205 RU
Kd [2]: 0.232 nM
koff [2]: 0.00011 s⁻¹
kon [2]: 477000 M⁻¹ s⁻¹
t1/2 [2]: 105 min
100 nM hIL-36R-MMH Bound (RU) [3]: 140 RU
koff [3]: 0.00131 s⁻¹
t1/2 [3]: 9 min
100 nM hIL-36R-mFc Bound (RU) [4]: 207 RU
Kd [4]: 0.449 nM
koff [4]: 0.000266 s⁻¹
kon [4]: 593000 M⁻¹ s⁻¹
t1/2 [4]: 43 min
100 nM hIL-36R-Trap-mFc Bound (RU) [5]: 264 RU
Kd [5]: 0.551 nM
koff [5]: 0.000271 s⁻¹
kon [5]: 491000 M⁻¹ s⁻¹
t1/2 [5]: 43 min
100 nM Human IL-36R-MMH Bound (RU) [6]: 119 RU
koff [6]: 0.000616 s⁻¹
t1/2 [6]: 19 min
100 nM Human IL-36R-MMH Bound (RU) [7]: 109 RU
koff [7]: 0.000927 s⁻¹
t1/2 [7]: 12 min
100 nM hIL-36R-MMH Bound (RU) [8]: 132 RU
koff [8]: 0.00233 s⁻¹
t1/2 [8]: 5 min
B4: H4H14706P2 (antibody, human IgG4 S228P, kappa, V domains shown)
VH: B1 VH with A23T, A40S, I57V, V70I, T88A
VL: B1 VL
notes: as for B1
